# Assay results as given in article PMC11480844.
# B1: H2-Kb / B3 (parent)
# chain 1: GQQVKQSSPSLTVQEGGISILNCDYENDMFDYFAWYKKYPDNSPTLLISVRSNVDKREDGRLTVFLNKSGKHFSLHITASQPEDTAVYLCAAGNTGYQNFYFGKGTSLTVIP
# chain 2: DSGVVQSPRHIIKEKGGRSVLTCIPISGHSNVVWYQQTLGKELKFLIQHYEKVERDKGFLPSRFSVQQFDDYHSEMNMSALELEDSAMYFCASSSLQGARNQAPLFGEGTRLSVL
# chain 3: not shown
# chain 4: IQKTPQIQVYSRHPPENGKPNILNCYVTQFHPPHIEIQMLKNGKKIPKVEMSDMSFSKDWSFYILAHTEFTPTETDTYACRVKHDSMAEPKTVYWDRDM
# chain 5: SIINFEKL
# B2: H2-Kb / E9 (parent)
# chain 1: QQKVQQSPESLTVSEGAMASLNCTFSDRSSDNFRWYRQHSGKGLEVLVSIFSDGEKEEGSFTAHLNRASLHVFLHIREPQPSDSALYLCAVSRSSGSWQLIFGSGTQLTVMP
# chain 2: NSGVVQSPRYIIKGKGERSILKCIPISGHLSVAWYQQTQGQELKFFIQHYDKMERDKGNLPSRFSVQQFDDYHSEMNMSALELEDSAVYFCASSRDSNNQAPLFGEGTRLSVL
# chain 3: not shown
# chain 4: B1 chain 4
# chain 5: SIINFEKL
# Variants of: B1
# Experiment: % of reporter cells activated (NFAT-GFP), raw
# Details: with B3; scale: % of reporter cells activated
# Note: test concentration or dose not given here.
row,Variant,ratio to parent
1,chain 5 I3E,0.956
2,chain 5 I3D,0.144
3,chain 5 I3W,0.28
4,chain 5 I3G,0.273
5,chain 5 L8V,0.793
6,chain 5 L8A,0.21
7,chain 5 E6S,1.25
8,chain 5 E6Y,1.97
9,chain 5 I2W,0.631
10,chain 5 I2Q,0.228
11,chain 5 S1F,0.18
12,chain 5 S1C,0.181
13,chain 5 S1E,0.216
14,chain 5 F5Y,0.918
15,chain 5 F5N,0.305
16,chain 5 K7T,0.253
17,chain 5 K7M,0.315

# Variants of: B2
# Experiment: % of reporter cells activated (NFAT-GFP), raw
# Details: with E9; scale: % of reporter cells activated
row,Variant,ratio to parent
1,chain 5 E6P,2.1
2,chain 5 E6C,0.862
3,chain 5 E6A,2.25
4,chain 5 E6M,1.86
5,chain 5 E6W,2.07
6,chain 5 E6I,2.63
7,chain 5 E6L,1.35
8,chain 5 E6R,2.34
9,chain 5 E6G,1.74
10,chain 5 E6T,2.1
11,chain 5 E6V,3.26
12,chain 5 E6F,1.68
13,chain 5 E6K,1.98
14,chain 5 E6S,2.46
15,chain 5 E6Y,2.84
16,chain 5 E6N,1.47
17,chain 5 E6D,1.68
18,chain 5 E6Q,1.47
19,chain 5 E6H,1.47
20,chain 5 N4S,1.89
21,chain 5 N4R,1.59
22,chain 5 N4W,1.77
23,chain 5 N4I,1.92
24,chain 5 N4G,1.35
25,chain 5 N4H,2.63

row,Variant,ratio to parent
1,chain 5 N4M,1.71
2,chain 5 N4Q,1.38
3,chain 5 N4D,1.11
4,chain 5 N4F,1.38
5,chain 5 N4V,2.04
6,chain 5 N4L,2.31
7,chain 5 N4C,2.34
8,chain 5 N4A,2.22
9,chain 5 N4E,1.68
10,chain 5 N4T,1.47
11,chain 5 N4P,2.07
12,chain 5 N4Y,1.15
13,chain 5 I2V,2.13
14,chain 5 I2Q,1.77
15,chain 5 I2S,1.46
16,chain 5 I2A,2.22
17,chain 5 I2M,1.59
18,chain 5 I2L,1.5
19,chain 5 I2C,2.31
20,chain 5 I2F,1.02
21,chain 5 I2W,1.86
22,chain 5 I2H,1.71
23,chain 5 I2Y,1.53
24,chain 5 I2R,1.06
25,chain 5 I2T,2.01

row,Variant,ratio to parent
1,chain 5 I2K,1.2
2,chain 5 I2G,1.32
3,chain 5 I2P,1.77
4,chain 5 I2D,2.31
5,chain 5 I2N,1.77
6,chain 5 I2E,2.07
7,chain 5 L8Y,1.2
8,chain 5 L8P,1.35
9,chain 5 L8G,1.25
10,chain 5 L8A,0.868
11,chain 5 L8W,0.778
12,chain 5 L8I,0.988
13,chain 5 L8T,0.623
14,chain 5 L8F,1.77
15,chain 5 L8Q,0.898
16,chain 5 L8D,0.605
17,chain 5 L8E,1.26
18,chain 5 L8C,2.78
19,chain 5 L8K,1.14
20,chain 5 L8V,0.302
21,chain 5 L8N,0.838
22,chain 5 L8H,1.92
23,chain 5 L8R,1.53
24,chain 5 L8S,0.886
25,chain 5 L8M,0.988

row,Variant,ratio to parent
1,chain 5 K7F,0.958
2,chain 5 K7D,1.53
3,chain 5 K7S,1.41
4,chain 5 K7R,0.237
5,chain 5 K7E,2.1
6,chain 5 K7M,1.02
7,chain 5 K7V,1.71
8,chain 5 K7Q,2.28
9,chain 5 K7H,2.43
10,chain 5 K7N,1.95
11,chain 5 K7W,1.38
12,chain 5 K7P,2.07
13,chain 5 K7T,2.01
14,chain 5 K7L,2.01
15,chain 5 K7G,1.92
16,chain 5 K7Y,1.26
17,chain 5 K7I,2.54
18,chain 5 K7A,0.686
19,chain 5 K7C,3.02
20,chain 5 F5D,3.05
21,chain 5 F5L,1.98
22,chain 5 F5A,1.68
23,chain 5 F5W,1.14
24,chain 5 F5K,2.54
25,chain 5 F5Y,2.37

row,Variant,ratio to parent
1,chain 5 F5I,1.02
2,chain 5 F5Q,1.32
3,chain 5 F5M,1.74
4,chain 5 F5H,1.89
5,chain 5 F5C,1.95
6,chain 5 F5N,2.01
7,chain 5 F5T,1.45
8,chain 5 F5V,1.89
9,chain 5 F5P,2.51
10,chain 5 F5G,1.74
11,chain 5 F5R,0.671
12,chain 5 F5E,2.43
13,chain 5 F5S,1.83
14,chain 5 S1K,1.23
15,chain 5 S1R,0.719
16,chain 5 S1M,1.5
17,chain 5 S1Y,1.2
18,chain 5 S1E,2.1
19,chain 5 S1N,1.32
20,chain 5 S1Q,1.16
21,chain 5 S1L,2.01
22,chain 5 S1A,3.05
23,chain 5 S1W,1.2
24,chain 5 S1C,3.08
25,chain 5 S1I,2.49

row,Variant,ratio to parent
1,chain 5 S1T,1.35
2,chain 5 S1P,1.23
3,chain 5 S1G,2.1
4,chain 5 S1V,1.86
5,chain 5 S1F,2.34
6,chain 5 S1H,2.01
7,chain 5 S1D,1.29
8,chain 5 I3M,1.17
9,chain 5 I3L,2.07
10,chain 5 I3H,1.53
11,chain 5 I3A,1.71
12,chain 5 I3S,2.13
13,chain 5 I3N,0.778
14,chain 5 I3V,1.23
15,chain 5 I3P,1.68
16,chain 5 I3Y,2.43
17,chain 5 I3K,2.31
18,chain 5 I3G,1.62
19,chain 5 I3C,1.65
20,chain 5 I3Q,1.83
21,chain 5 I3E,1.86
22,chain 5 I3D,1.41
23,chain 5 I3T,1.68
24,chain 5 I3F,1.26
25,chain 5 I3R,1.89
